# Measured values as given in paper PMC3094755.
# Values joined by “and” are separate entries in the source; they are usually repeats but may differ in a detail not shown here. Equal entries are not always repeated.
# Molecular target: PARP-1 F1 (Homo sapiens) (UniProt P09874)
# Assay: fluorescence anisotropy
# Conditions: 5'-phosphate; FA: 50 mM Tris-HCl pH 7, 150 uM ZnSO4, 4 mM DTT, 0-200 mM NaCl, 25 C, 10 nM DNA (mutants 25 nM DNA, 25 mM NaCl); EMSA: 50 mM Tris-HCl pH 7.4, 150 uM ZnSO4, 4 mM
# Sequence of PARP-1 F1 (Homo sapiens) (P09874 1-108): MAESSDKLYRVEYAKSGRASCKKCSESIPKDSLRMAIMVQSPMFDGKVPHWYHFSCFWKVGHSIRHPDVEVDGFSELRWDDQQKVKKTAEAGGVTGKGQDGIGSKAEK
sequence,measurement,value
"CGGTCGATCGTAAGATCGACCGGCGCTGGAGCTTGCTCCAGCGC [44-nt nicked dumbbell, 5'-phosphate, fluorescein-dT]",Kd,6.6 µM and 1.1 µM
